Assay results: the supplement of paper PMC9170038

How the values were obtained:
[1] = tested on: MS2 coat protein; experiment: apparent KD of MS2 coat protein, switch ON state; designed switch direction (-1 OFF switch, 1 ON switch): -1; higher = weaker reporter binding; conditions: FMN input: 0 or 200 uM; Eterna round: R93 (includes R88 designs)
Method in brief: (§1)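 The designed RNA switches were transcribed on-chip from Illumina sequencing clusters. In 100 mM Tris-HCl pH 7.5, 80 mM KCl and 4 mM MgCl2, without or with constant ligand, they were titrated with SNAP-549-labelled MS2 coat protein from 0.7 or 1.5 nM to 3 µM in twofold steps. Apparent KD is the per-design median of normalised cluster binding-curve fits.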

[2] = tested on: MS2 coat protein; experiment: apparent KD of MS2 coat protein, switch OFF state (with FMN for OFF switches, without FMN for ON switches); designed switch direction (-1 OFF switch, 1 ON switch): -1; higher = weaker reporter binding; conditions: FMN input: 0 or 200 uM; Eterna round: R93 (includes R88 designs)
Method in brief: as §1

| Sequence | apparent KD of MS2 coat protein [1] [µM] | apparent KD of MS2 coat protein [2] [µM] |
| --- | --- | --- |
| AGUAGUACAGGAUAUACAUGAGGAUCACCCAUGUGAAAAAUAAGUGGCGUACCACAAAGUAGAAGGGUACUACA [Mat - Exclusion 3 - JL mod - D37] | 0.0299 | 0.141 |
| UAACAGUCAGGAUAUGGACAAUACAAUACAAACAAAUAAAGCCAGAAGGGACAUGAGGAUCACCCAUGUAAACA [Simple] | 0.0416 | 0.023 |
| AAGAACUGAGGAUAUACAUGAGGAUCACCCAUGUAAAAGAAAGAAGGGAAAGAGAAAAGUAGAAGGCAGAAGAA [Inamunnifnebu] | 0.0206 | 0.0278 |
| AACUAGCUAGGAUAUACAUGAGGAUCACCCAUGUAAAAAAAAAAAAAAAGAUAUAUAUGUAGAAGGAGCUAGUA [Mod of Brourd] | 0.0305 | 0.0413 |
| AAGAAGUCAGGAUAUGCCAGAGAUCAAGAAAGUGACGAAUAGCAGAAGGGACAUGAGGAUCACCCAUGUAAAGA [Opal 9] | 0.0435 | 0.0359 |
| AAAAAAUCAGGAUAUACAUGAGGAUCACCCAUGUGAAAGAACGAUUAACGACCAGCAAGUAGAAGGGAUAAAAA [Ruby 81] | 0.0181 | 0.0197 |
| AAAAAACAUGAGGAUCACCCAUGUAAGGAUAUCGUGCAGAAAAAAAAAAAAAACUGCACGAGAAGGUACAAGGA [Brourd - Exclusion 1 - Sub 1] | 0.0361 | 0.0627 |
| AAGAUGUCAGGAUAUGCUUGUCGUCACAAAAGUGAUGACGAGCAGAAGGGACAUGAGGAUCACCCAUGUAAAGA [JL eternac mod 3] | 0.148 | 0.303 |
| AAAAAACAUGAGGAUCACCCAUGUAAGGAUAUGCUGGUGCGAAAGCACAAAAAAAACAGCAGAAGGUACAAAAA [66%, Wbt, 37] | 0.0174 | 0.0275 |
| AAGAAACAUGAGGAUCACCCAUGUGAGGAUAUGGAAAAGAAAAGAAAAGAAAGAAGAACCAGAAGGCACAAAGG [Neferkare (VI) Pepiseneb] | 0.0718 | 0.0508 |
| GGAAAACAUGAGGAUCACCCAUGUGAGGAUAUCCAGGAUAUAGAAGGAGGAUAUAGAAGGAGAAGGCACGAAGG [salish99-ex1-18] | 0.0286 | 0.0331 |
| AAGAACCGAGGAUAUACAUGAGGAUCACCCAUGUAAAAGAAAGAAGGGAAAGAGAAAAGUAGAAGGCGGAAGAA [Usermaatre Shoshenq VI] | 0.0361 | 0.0343 |
| AAGAAGGCAGGAUAUACAUGAGGAUCACCCAUGUAAAAGAAAGAGGGAAAAGAGAAAAGUAGAAGGGCCAAGAA [Setepenre-meryamun Alexander III] | 0.0278 | 0.075 |
| AAGAAACAUGAGGAUCACCCAUGUGAGGAUAUACAAAAGAAAAGAAAAGAAAGAAGAAGUAGAAGGUACAAAGG [Merenre Nemtyemsaf II] | 0.0237 | 0.0266 |
| AGGAAACAUGAGGAUCACCCAUGUGAGGAUAUUCAAAAGAAAAGAAAAGAAAGAAGAAGAAGAAGGCACAAGAA [Khayu] | 0.0328 | 0.0335 |
| AACCUGCUAGGAUAUACAGCAGGGAUUCGAAAACCCACGAAACAUGAGGAUCACCCAUGUAGAAGGAGUAGGGA [Teainis] | 0.0203 | 0.0161 |
| AAGAGGCUAGGAUAUACAUAUCUGAUGACUCAUCCUAAAACACAUGAGGAUCACCCAUGUAGAAGGAGCGAAUG [Anledi] | 0.0192 | 0.0165 |
| AAAAACUGAGGAUAUACUUUGGGAAAAGAAAAGAUGAUGUUACAUGAGGAUCACCCAUGUAGAAGGCAGAAAAA [Mat - Exclusion 2 - Mod - D154] | 0.0254 | 0.043 |
| AAAAAACAUGAGGAUCACCCAUGUGAGGAUAUACAAAACCCAUAUAAAAAGGGAAAAAGUAGAAGGCGCAAAAA [wbt round 1 mod 8] | 0.0208 | 0.0243 |
| GGAACACAUGAGGAUCACCCAUGUCAGGAUAUGUAGAUAAAAAGAAAAUAAAAUAAAAACAGAAGGGACAAAAG [May 3] | 0.076 | 0.0733 |
| AGCUAGUCAGGAUAUACGAAAAUGUAAAAAGAAGUGAAGGGACAUGAGGAUCACCCAUGUAGAAGGGACUAGAA [74%, Web mod - With 4 less C's] | 0.058 | 0.116 |
| AUAGUACAUGAGGAUCACCCAUGUCAGGAUAUUCGAUAUGAAAAAAAAAAAAAGUUAAGGAGAAGGGACUAUAA [EX1 Malc#13] | 0.0261 | 0.0261 |
| AUAGUACAUGAGGAUCACCCAUGUCAGGAUAUUGGAUAUGACAAAAAAAAAAAGUUAACGAGAAGGGACUAUAA [EX1 Malc#15] | 0.0312 | 0.0366 |

| Sequence | apparent KD of MS2 coat protein [1] [µM] | apparent KD of MS2 coat protein [2] [µM] |
| --- | --- | --- |
| AAAGAUGCAGGAUAUACAUGAGGAUCACCCAUGUUAGACCAAAAAUGGGAAAAAGAAAGUAGAAGGGCAUAAAA [Ex 3 May 34] | 0.0432 | 0.203 |
| AAAACACAUGAGGAUCACCCAUGUGAGGAUAUGAACGAAAUAAAAUAAAAAUAAAAGUUCAGAAGGCACAAAAA [Mat - Exclusion 1 - Eli mod - D13] | 0.0222 | 0.0366 |
| AAAAACGGAGGAUAUACAAAUUAAGGAAGAAAACACGAAAAACAUGAGGAUCACCCAUGUAGAAGGCCGGAAAA [Ex 2 #3] | 0.0241 | 0.0297 |
| AAGGGACAUGAGGAUCACCCAUGUGAGGAUAUGCUAUGGAAAAUAAAAAUAAAACAUAGCAGAAGGCAUAAAAA [Denovo 9] | 0.0601 | 0.0448 |
| AACGAGUCAGGAUAUACAAAAAAUAAAUAAAUAAAAUAAAAGUAGAAGGGACAUGAGGAUCACCCAUGUAAAUA [JR_Exc004_Sub020] | 0.0593 | 0.044 |
| AAGAAGUCAGGAUAUCGAAGACAGACGAAAAGUCUGUCAAACGAGAAGGGACAUGAGGAUCACCCAUGUAAGAA [What have we learned so far? 64% 1] | 0.0449 | 0.0604 |
| AAAGGACGAGGAUAUACAUGAGGAUCACCCAUGUAAAAAACAUAGUAAAAGUGCUUGUGUAGAAGGCGUCCAAA [Meechl Ex3 2 R2 v9] | 0.0781 | 0.195 |
| AAAAAGGCAGGAUAUACGAGUCAAAGAAAAGACAAAAGGAGACAUGAGGAUCACCCAUGUAGAAGGGCCAAAAA [Fiskers exclusion D2 62% 5] | 0.0368 | 0.0488 |
| CCCUCACAUGAGGAUCACCCAUGUUAGGAUAUCUACCAGGAGCCUAAAAUGGCCCAACGGAGAAGGAACGUGCA [Arbire] | 0.0192 | 0.0169 |
| AAAAAACAUGAGGAUCACCCAUGUUAGGAUAUGCAGAGGGAAAAAAAAAAAAAAAAAAGCAGAAGGAACAUAAA [Design1] | 0.0315 | 0.0265 |
| AAAAAGUGAGGAUAUACAUGAGGAUCACCCAUGUGUAUAAAAAAUUACACAAAAGAAAGUAGAAGGCACUAAAG [Mat - Exclusion 3 - Mayanna mod - D112] | 0.017 | 0.0308 |
| AAGAACCUAGGAUAUACUAAAGAAAUGAAAAGAAAUAAAGAACAUGAGGAUCACCCAUGUAGAAGGAGGAAGAA [Sewadjkare III] | 0.0433 | 0.0261 |
| AAAAUACGAGGAUAUACAUGAGGAUCACCCAUGUCAAAAAAUGACUACACAAAAGAAAGUAGAAGGCGUAAAAG [Mat - Exclusion 3 - Mayanna mod - D127] | 0.024 | 0.0418 |
| CUCUUGUCAGGAUAUGAAAGAAAAGAAAAGAAAGAAAAGAAUCAGAAGGGACAUGAGGAUCACCCAUGUAAGAA [EteRNA is fun!] | 0.064 | 0.0769 |
| AUCAUGUAAGGAUAUAUAAGAAAAGAAAAGAAAGAAAAGAAAUAGAAGGUACAUGAGGAUCACCCAUGUAAGAA [EteRNA is fun!] | 0.0308 | 0.0156 |
| AAAAGGGCAGGAUAUGCGUACUCACGGGAAAACUGAAUGGUACAUGAGGAUCACCCAUGUAGAAGGGCUAAAAA [Dora Explored 19 - Jieux - Exclusion 2] | 0.0546 | 0.0378 |
| AAUUCACAUGAGGAUCACCCAUGUAAGGAUAUCGAAAAAAAACUAAACAAAAAACAAACGAGAAGGUACAAAAA [Exclusion 1 design 5] | 0.0255 | 0.0316 |
| AGUCAUACAGGAUAUACAUGAGGAUCACCCAUGUAUAUCCAAAAAAAAAAAUCCUCAUGUAGAAGGGUAUGACA [EX3 205: Super Stable 5] | 0.0171 | 0.0187 |
| AGAAAGCUAGGAUAUACCUGGAGGGUUCGAAAUGAAAUAAAACAUGAGGAUCACCCAUGUAGAAGGAGCCCGAG [Veislela] | 0.0426 | 0.028 |
| AACUGACAUGAGGAUCACCCAUGUCAGGAUAUGAUAUGUAAAAAAAAAAAAAUACUUAUCAGAAGGGACAUGAA [Design 44: Sub-opt CB] | 0.0151 | 0.0141 |
| AAAAAAAGAGGAUAUACAUGAAAAAUAAAAAUGUAAAAAAAACAUGAGGAUCACCCAUGUAGAAGGCUUAAAAA [Ecx-I 62% 1] | 0.0246 | 0.0259 |
| AAGAACGGAGGAUAUACUAAAGAAAUGAAAAGAAAUAAAGAACAUGAGGAUCACCCAUGUAGAAGGCCGAAGAA [Sehebre] | 0.017 | 0.0237 |
